Laboratory results from publication doi:10.1101/2025.09.19.677352.

Tests used:
[1] = molecular target: ap JFcα (mallard duck IgA heavy chain Cα2-Cα3-Cα4-Tp co-expressed with joining chain) (Anas platyrhynchos (mallard duck)); assay: SPR
[2] = molecular target: mm JFcα (mouse IgA heavy chain and joining chain) (Mus musculus (house mouse)); assay: SPR

Row | Substance | SPR response [1] | also measured
1 | ap SC D1_(ΔN-ext.)-D2-D3-D4 (mallard duck SC without the SC N-terminal extension) (domain or fragment) |  | maximum response against concentration-matched ap SC wt [1]: 20 % lower
2 | hs SC D1 (human SC D1 only) (domain or fragment) | 29 RU | 
3 | hs SC D1-D3-D4-D5 (human SC with D2 deletion) (from UniProt P01833 19-638) (domain or fragment) | 34 RU | 
4 | mm SC D1 (mouse SC D1 only) (domain or fragment) | 7 RU | 
5 | mm SC D1-D3-D4-D5 (mouse SC with D2 deletion) (from UniProt O70570 19-585) (domain or fragment) | 1 RU | 
6 | mm SC D1_((+)N-ext.) (mouse SC D1 with the mallard duck SC N-terminal extension) |  | maximum response at 64 nM against the non-chimeric variant [2]: 93 % higher
